The target of this assay is T1, HLA-A2/E7 (11-19) tetramer (human; HPV 16).
T1 construct: also called E7(11-19) peptide-MHC tetramer; E7 (11-19)-loaded tetramer
In words: tetramer flow cytometry; transfected 1:1 CD4+ and CD4+/CD8+ Jurkat-derived cells.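 Note: cells transiently transfected with TCR plasmids, stained 48 h later with HLA-A*02:01 peptide-MHC tetramer plus anti-CD8 antibody, read by flow cytometry to assess CD8-independent tetramer binding.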

Substitutions are numbered along the chain they refer to.

Description: For transfection, the CD4+ and CD4+/CD8+ cell mixtures were transiently transfected with TCR-encoding plasmids and 48 hours after transfection, cells were assessed by flow cytometry for (1) binding of the target peptide in the context of an MHC molecule (HLA:A02:01) by staining with an E6(29-38) peptide- or an E7(11-19) peptide-MHC tetramer reagent, and/or (2) CD8+ independent binding of the target by co-staining the tetramer-labeled cells with an anti-CD8 antibody.

B1: TCR 35 (codon optimized, cysteine modified version) (TCR, V domains shown)
V domain 1: KDQVFQPSTVASSEGAVVEIFCNHSVSNAYNFFWYLHFPGCAPRLLVKGSKPSQQGRYNMTYERFSSSLLILQVREADAAVYYCAVAGDYKLSFGAGTTVTVRA
V domain 2: DSGVTQTPKHLITATGQRVTLRCSPRSGDLSVYWYQQSLDQGLQFLIQYYNGEERAKGNILERFSAQQFPDLHSELNLSSLELGDSALYFCASTTSGDSSYNEQFFGPGTRLTVLE
Turning to B1, the “% cells in E7 tet+/CD8+ quadrant” value was 14.5%, the “% cells in E7 tet+/CD8- quadrant” value was found to be 7.18%, the “% cells in E7 tet-/CD8+ quadrant” value was 35.1% and the “% cells in E7 tet-/CD8- quadrant” value came out at 43.2%.

B2: TCR 46 (codon optimized, cysteine modified version) (TCR, V domains shown)
V domain 1: AQSVTQLDSQVPVFEEAPVELRCNYSSSVSVYLFWYVQYPNQGLQLLLKYLSGSTLVKGINGFEAEFNKSQTSFHLRKPSVHISDTAEYFCAVSPSSGTYKYIFGTGTRLKVLA
V domain 2: GAGVSQTPSNKVTEKGKYVELRCDPISGHTALYWYRQSLGQGPEFLIYFQGTGAADDSGLPNDRFFAVRPEGSVSTLKIQRTERGDSAVYLCASSLYLGGSETQYFGPGTRLLVLE
Consider B2, for which the “% cells in E7 tet+/CD8+ quadrant” value came to 1.27%, the “% cells in E7 tet+/CD8- quadrant” value is 1.21%, the “% cells in E7 tet-/CD8+ quadrant” value came out at 38.9% and the “% cells in E7 tet-/CD8- quadrant” value is 58.6%.

B3: TCR 41 (codon optimized, cysteine modified version) (TCR, V domains shown)
V domain 1: RKEVEQDPGPFNVPEGATVAFNCTYSNSASQSFFWYRQDCRKEPKLLMSVYSSGNEDGRFTAQLNRASQYISLLIRDSKLSDSATYLCVVTFALTGGFKTIFGAGTRLFVKA
V domain 2: EPEVTQTPSHQVTQMGQEVILRCVPISNHLYFYWYRQILGQKVEFLVSFYNNEISEKSEIFDDQFSVERPDGSNFTLKIRSTKLEDSAMYFCASNPRDRVSYEQYFGPGTRLTVTE
B3: the “% cells in E7 tet+/CD8+ quadrant” value is 6.07%, the “% cells in E7 tet+/CD8- quadrant” value worked out at 2.41%, the “% cells in E7 tet-/CD8+ quadrant” value came to 43.6% and the “% cells in E7 tet-/CD8- quadrant” value stood at 47.9%.

B4: TCR 45 (codon optimized, cysteine modified version) (TCR, V domains shown)
V domain 1: GQQVMQIPQYQHVQEGEDFTTYCNSSTTLSNIQWYKQRPGGHPVFLIQLVKSGEVKKQKRLTFQFGEAKKNSSLHITATQTTDVGTYFCAGSSGAGSYQLTFGKGTKLSVIP
V domain 2: GAGVSQSPSNKVTEKGKDVELRCDPISGHTALYWYRQRLGQGLEFLIYFQGNSAPDKSGLPSDRFSAERTGESVSTLTIQRTQQEDSAVYLCASSLYLGTTGELFFGEGSRLTVLE
With B4, the “% cells in E7 tet+/CD8+ quadrant” value came to 22.4%, the “% cells in E7 tet+/CD8- quadrant” value came to 16.9%, the “% cells in E7 tet-/CD8+ quadrant” value came to 19.5% and the “% cells in E7 tet-/CD8- quadrant” value is 41.3%.

B5: TCR 37 (codon optimized, cysteine modified version) (TCR, V domains shown)
V domain 1: ELKVEQNPLFLSMQEGKNYTIYCNYSTTSDRLYWYRQDPGKSLESLFVLLSNGAVKQEGRLMASLDTKARLSTLHITAAVHDLSATYFCAGYSGAGSYQLTFGKGTKLSVIP
V domain 2: GAGVSQSPRYKVAKRGQDVALRCDPISGHVSLFWYQQALGQGPEFLTYFQNEAQLDKSGLPSDRFFAERPEGSVSTLKIQRTQQEDSAVYLCASSLLLGAYGYTFGSGTRLTVVE
As to B5, the “% cells in E7 tet+/CD8+ quadrant” value stood at 25.5%, the “% cells in E7 tet+/CD8- quadrant” value is 19.5%, the “% cells in E7 tet-/CD8+ quadrant” value amounted to 22.7% and the “% cells in E7 tet-/CD8- quadrant” value came out at 32.2%.

B6: TCR 36 (codon optimized, cysteine modified version) (TCR, V domains shown)
V domain 1: RKEVEQDPGPFNVPEGATVAFNCTYSNSASQSFFWYRQDCRKEPKLLMSVYSSGNEDGRFTAQLNRASQYISLLIRDSKLSDSATYLCVVNRDNYGQNFVFGPGTRLSVLP
V domain 2: EPEVTQTPSHQVTQMGQEVILRCVPISNHLYFYWYRQILGQKVEFLVSFYNNEISEKSEIFDDQFSVERPDGSNFTLKIRSTKLEDSAMYFCAMTGRSNYEQYFGPGTRLTVTE
B6: the “% cells in E7 tet+/CD8+ quadrant” value was found to be 23.4%, the “% cells in E7 tet+/CD8- quadrant” value was determined as 16.7%, the “% cells in E7 tet-/CD8+ quadrant” value amounted to 25.4% and the “% cells in E7 tet-/CD8- quadrant” value was 34.5%.

B7: TCR 40 (codon optimized, cysteine modified version) (TCR, V domains shown)
V domain 1: GQQVMQIPQYQHVQEGEDFTTYCNSSTTLSNIQWYKQRPGGHPVFLIQLVKSGEVKKQKRLTFQFGEAKKNSSLHITATQTTDVGTYFCAGRNNFNKFYFGSGTKLNVKP
V domain 2: B6 V domain 2 with M94I, G96A, N99S
For the molecule B7, the “% cells in E7 tet+/CD8+ quadrant” value turned out to be 7.84%, the “% cells in E7 tet+/CD8- quadrant” value is 1.37%, the “% cells in E7 tet-/CD8+ quadrant” value is 42.4% and the “% cells in E7 tet-/CD8- quadrant” value stood at 48.4%.

B8: TCR 48 (codon optimized, cysteine modified version) (TCR, V domains shown)
V domain 1: QKEVEQDPGPLSVPEGAIVSLNCTYSNSAFQYFMWYRQYSRKGPELLMYTYSSGNKEDGRFTAQVDKSSKYISLFIRDSQPSDSATYLCAMRIQGAQKLVFGQGTRLTINP
V domain 2: B6 V domain 2 with M94S, S98V, N99S
In the case of B8, the “% cells in E7 tet+/CD8+ quadrant” value was 5.36%, the “% cells in E7 tet+/CD8- quadrant” value amounted to 1.29%, the “% cells in E7 tet-/CD8+ quadrant” value was 37% and the “% cells in E7 tet-/CD8- quadrant” value was 56.4%.

B9: TCR 47 (codon optimized, cysteine modified version) (TCR, V domains shown)
V domain 1: QKEVEQNSGPLSVPEGAIASLNCTYSDRGSQSFFWYRQYSGKSPELIMFIYSNGDKEDGRFTAQLNKASQYVSLLIRDSQPSDSATYLCAVNLLSGSARQLTFGSGTQLTVLP
V domain 2: B6 V domain 2 with S98T, N99T
Consider B9, for which the “% cells in E7 tet+/CD8+ quadrant” value worked out at 1.98%, the “% cells in E7 tet+/CD8- quadrant” value came to 0.71%, the “% cells in E7 tet-/CD8+ quadrant” value came out at 40.6% and the “% cells in E7 tet-/CD8- quadrant” value came to 56.7%.

B10: TCR 42 (codon optimized, cysteine modified version) (TCR, V domains shown)
V domain 1: B7 V domain 1 with R92P, N93D
V domain 2: B6 V domain 2 with M94K, G96S, N99S
B10: the “% cells in E7 tet+/CD8+ quadrant” value came to 1.21%, the “% cells in E7 tet+/CD8- quadrant” value turned out to be 1.65%, the “% cells in E7 tet-/CD8+ quadrant” value was 39.5% and the “% cells in E7 tet-/CD8- quadrant” value was 57.4%.

B11: TCR 39 (codon optimized, cysteine modified version) (TCR, V domains shown)
V domain 1: GQQLNQSPQSMFIQEGEDVSMNCTSSSIFNTWLWYKQEPGEGPVLLIALYKAGELTSNGRLTAQFGITRKDSFLNISASIPSDVGIYFCAGYSSSNDYKLSFGAGTTVTVRA
V domain 2: EPEVTQTPSHQVTQMGQEVILRCVPISNHLYFYWYRQILGQKVEFLVSFYNNEISEKSEIFDDQFSVERPDGSNFTLKIRSTKLEDSAMYFCASTPRDRGKEAFFGQGTRLTVVE
For the molecule B11, the “% cells in E7 tet+/CD8+ quadrant” value came to 12.3%, the “% cells in E7 tet+/CD8- quadrant” value amounted to 2.61%, the “% cells in E7 tet-/CD8+ quadrant” value was determined as 37% and the “% cells in E7 tet-/CD8- quadrant” value was found to be 48%.

B12: TCR 44 (codon optimized, cysteine modified version) (TCR, V domains shown)
V domain 1: GQNIDQPTEMTATEGAIVQINCTYQTSGFNGLFWYQQHAGEAPTFLSYNVLDGLEEKGRFSSFLSRSKGYSYLLLKELQMKDSASYLCAQYSGGYQKVTFGTGTKLQVIP
V domain 2: DSGVTQTPKHLITATGQRVTLRCSPRSGDLSVYWYQQSLDQGLQFLIQYYNGEERAKGNILERFSAQQFPDLHSELNLSSLELGDSALYFCASSGTPDTQYFGPGTRLTVLE
As for B12, the “% cells in E7 tet+/CD8+ quadrant” value is 2.96%, the “% cells in E7 tet+/CD8- quadrant” value was found to be 1.43%, the “% cells in E7 tet-/CD8+ quadrant” value came to 39.9% and the “% cells in E7 tet-/CD8- quadrant” value is 55.7%.
